One block for each substance: values may come before it.
Assays:
[1] = target: recombinant His-tagged L5 (Trypanosoma brucei); assay: co-IP; recombinant immune capture as above, with in vitro-transcribed 5S rRNA added before the proteins at an equal molar ratio; Western blot
[2] = target: recombinant His-tagged P34 (Trypanosoma brucei); assay: as above
P34/P37, endogenous [3] = assay: co-IP; in vivo immune capture as above, with RNase A (50 ug) added to the whole-cell extract; Western blot for TbMex67; input set at 1.0
[4] = target: ribosomal protein L5, endogenous (Trypanosoma brucei brucei strain 427 (endogenous in procyclic cells)); assay: as above
P34/P37, endogenous [5] = assay: co-IP; in vivo immune capture: 100 ug procyclic whole-cell extract with anti-P34/P37 or anti-L5 cross-linked protein A Dynabeads, PBS with 10 mg/ml BSA, 1 h at 4°C, without RNase A; Western blot for TbMex67; input set at 1.0
[6] = target: ribosomal protein L5, endogenous (Trypanosoma brucei brucei strain 427 (endogenous in procyclic cells)); assay: as above
[7] = tested on: TbMex67 (Trypanosoma brucei); assay: filter binding; conditions: TbMex67 alone; 10 mM Tris-HCl pH 7.4, 100 mM NaCl, 1 mM EDTA, 100 ug/ml BSA, 0.05 nM RNA, 0-200 nM protein, 30 min, room temperature; RNA preheated 55 C 10 min then ice
[8] = tested on: TbMex67;TbMtr2 (Trypanosoma brucei;Trypanosoma brucei); assay: filter binding; conditions: TbMex67 and TbMtr2 preincubated together; Kd in total TbMex67; 10 mM Tris-HCl pH 7.4, 100 mM NaCl, 1 mM EDTA, 100 ug/ml BSA, 0.05 nM RNA, 0-200 nM protein, 30 min, room temperature; RNA preheated 55 C 10 min then ice

ratio of TbMex67 in the pellet with 5S rRNA to without [1]: 0.94 | ratio of TbMex67 in the pellet with 5S rRNA to without [2]: 0.94
Substance: recombinant His-tagged TbMex67 (natural protein)

Substance: Trypanosoma brucei Mex67 (TbMex67), endogenous (natural protein)
relative amount of TbMex67 in the pellet, with RNase A (relative to input set at 1.0) (P34/P37, endogenous [3]): 0.53 | amount of TbMex67 in the pellet, with RNase A (relative to input set at 1.0) [4]: 0.8 | relative total amount of TbMex67 in the pellet fraction (relative to input set at 1.0) (P34/P37, endogenous [5]): 0.35 | fraction of the total amount of TbMex67 associated with L5 (relative to input set at 1.0) [6]: 0.43

Substance: 5S rRNA
Kd [7]: 41 nM | Kd [8]: 10 nM
